Laboratory results published in publication PMC7335425 (Cell, 2020).
Substitutions are numbered along the chain they refer to. Names may count otherwise.

B1: LetB two-ring truncation mutant, TM helix deleted (domain or fragment)
chain: QDRGNTVTIDFMSADGIVPGRTPVRYQGVEVGTVQDISLSDDLRKIEVKVSIKSDMKDALREETQFWLVTPKASLAGVSGLDALVGGNYIGMMPGKGKEQDHFVALDTQPKYRLDNGDGLSIIVEAPEAGSLGIGTPVLFRGLEVGTVTGMTLGTLSDRVMIAMRISKRYQHLVRNNSVFWLASGYSLDFGLTGGVVKTGTFNQFIRGGIAFATPPGTPLAPKAQEGKHFLLQESEPKEWREWGTALPK
B2: LetB three-ring truncation mutant (rings 2, 3, 4 and 5 removed), TM helix deleted (domain or fragment)
chain: QDRGNTVTIDFMSADGIVPGRTPVRYQGVEVGTVQDISLSDDLRKIEVKVSIKSDMKDALREETQFWLVTPKASLAGVSGLDALVGGNYIGMMPGKGKEQDHFVALDTQPKYRLDNGGGQITLHAFDAGKLAVGMPIRYLGIDIGQIQTLDLITARNEVQAKAVLYPEYVQTFARGGTRFSVVTPQISAAGVEHLDTILQPYINVEPGRGNPRRDFELQEATITDSRYLDGLSIIVEAPEAGSLGIGTPVLFRGLEVGTVTGMTLGTLSDRVMIAMRISKRYQHLVRNNSVFWLASGYSLDFGLTGGVVKTGTFNQFIRGGIAFATPPGTPLAPKAQEGKHFLLQESEPKEWREWGTALPK
B3: LetB L243N, TM helix deleted (domain or fragment, E. coli, UniProt P76272 43-877, looked up)
chain: QDRGNTVTIDFMSADGIVPGRTPVRYQGVEVGTVQDISLSDDLRKIEVKVSIKSDMKDALREETQFWLVTPKASLAGVSGLDALVGGNYIGMMPGKGKEQDHFVALDTQPKYRLDNGDLMIHLQAPDLGSLNSGSLVYFRKIPVGKVYDYAINPNKQGVVIDVLIERRFTDLVKKGSRFWNVSGVDANVSISGAKVKLESNAALVNGAIAFDSPEESKPAEAEDTFGLYEDLAHSQRGVIIKLELPSGAGLTADSTPLMYQGLEVGQLTKLDLNPGGKVTGEMTVDPSVVTLLRENTRIELRNPKLSLSDANLSALLTGKTFELVPGDGEPRKEFVVVPGEKALLHEPDVLTLTLTAPESYGIDAGQPLILHGVQVGQVIDRKLTSKGVTFTVAIEPQHRELVKGDSKFVVNSRVDVKVGLDGVEFLGASASEWINGGIRILPGDKGEMKASYPLYANLEKALENSLSDLPTTTVSLSAETLPDVQAGSVVLYRKFEVGEVITVRPRANAFDIDLHIKPEYRNLLTSNSVFWAEGGAKVQLNGSGLTVQASPLSRALKGAISFDNLSGASASQRKGDKRILYASETAARAVGGQITLHAFDAGKLAVGMPIRYLGIDIGQIQTLDLITARNEVQAKAVLYPEYVQTFARGGTRFSVVTPQISAAGVEHLDTILQPYINVEPGRGNPRRDFELQEATITDSRYLDGLSIIVEAPEAGSLGIGTPVLFRGLEVGTVTGMTLGTLSDRVMIAMRISKRYQHLVRNNSVFWLASGYSLDFGLTGGVVKTGTFNQFIRGGIAFATPPGTPLAPKAQEGKHFLLQESEPKEWREWGTALPK
B4: LetB L355N, TM helix deleted (domain or fragment, E. coli, UniProt P76272 43-877, looked up)
chain: B3 chain with N201L, L313N
B5: LetB L359N, TM helix deleted (domain or fragment, E. coli, UniProt P76272 43-877, looked up)
chain: B3 chain with N201L, L317N
B6: LetB V247N, TM helix deleted (domain or fragment, E. coli, UniProt P76272 43-877, looked up)
chain: B3 chain with N201L, V205N
B7: LetB L246N, TM helix deleted (domain or fragment, E. coli, UniProt P76272 43-877, looked up)
chain: B3 chain with N201L, L204N
B8: LetB L358N, TM helix deleted (domain or fragment, E. coli, UniProt P76272 43-877, looked up)
chain: B3 chain with N201L, L316N
B9: LetB four-ring mutant 1–3-4–7, TM helix deleted (domain or fragment)
chain: QDRGNTVTIDFMSADGIVPGRTPVRYQGVEVGTVQDISLSDDLRKIEVKVSIKSDMKDALREETQFWLVTPKASLAGVSGLDALVGGNYIGMMPGKGKEQDHFVALDTQPKYRLDNGRGVIIKLELPSGAGLTADSTPLMYQGLEVGQLTKLDLNPGGKVTGEMTVDPSVVTLLRENTRIELRNPKLSLSDANLSALLTGKTFELVPGDGEPRKEFVVVPGEKALLHEPDVLTLTLTAPESYGIDAGQPLILHGVQVGQVIDRKLTSKGVTFTVAIEPQHRELVKGDSKFVVNSRVDVKVGLDGVEFLGASASEWINGGIRILPGDKGEMKASYPLYANLEKALENSLSDLPTDGLSIIVEAPEAGSLGIGTPVLFRGLEVGTVTGMTLGTLSDRVMIAMRISKRYQHLVRNNSVFWLASGYSLDFGLTGGVVKTGTFNQFIRGGIAFATPPGTPLAPKAQEGKHFLLQESEPKEWREWGTALPK

Legend:
Experiment in all cases: negative stain EM
[1] = biological target: MCE protein with six MCE domains from Pseudomonas aeruginosa (Pseudomonas aeruginosa)
[2] = biological target: LetB six-ring truncation mutant (ring 6 removed), TM helix deleted (E. coli) (UniProt P76272)
[3] = biological target: LetB ΔPLL3 mutant, TM helix deleted (E. coli) (UniProt P76272)
[4] = biological target: LetB ΔPLL2 mutant, TM helix deleted (E. coli) (UniProt P76272)
negative stain EM = biological target: the molecule itself

Row | Molecule | stoichiometry N (negative stain EM) | also measured
1 | MCE protein with six MCE domains from Pseudomonas aeruginosa (natural protein) | – | stoichiometry N [1]: 6
2 | LetB six-ring truncation mutant (ring 6 removed), TM helix deleted (from UniProt P76272 43-877) (domain or fragment) | – | stoichiometry N [2]: 6
3 | LetB ΔPLL3 mutant, TM helix deleted (from UniProt P76272 43-877) (domain or fragment) | – | stoichiometry N [3]: 6
4 | LetB ΔPLL2 mutant, TM helix deleted (from UniProt P76272 43-877) (domain or fragment) | – | stoichiometry N [4]: 6
5 | B1 | 6 | –
6 | B2 | 6 | –
7 | B3 | 6 | –
8 | B4 | 6 | –
9 | B5 | 6 | –
10 | B6 | 6 | –
11 | B7 | 6 | –
12 | B8 | 6 | –
13 | B9 | 6 | –
